Source: article PMC2932715

Key:
[1] = target: hemagglutinin (HA) ectodomain from A/New York/107/2003 (H7N2) (influenza A virus A/New York/107/2003 (H7N2)); experiment: SEC
[2] = target: hemagglutinin (HA) ectodomain from A/New York/107/2003 (H7N2) (influenza A virus A/New York/107/2003 (H7N2)); experiment: crystal structure

hemagglutinin (HA) ectodomain from A/New York/107/2003 (H7N2) (natural protein)
stoichiometry N [1]: 3
stoichiometry N [2]: 3
